The results in this text go back to paper PMC4063770, “A Dimerized HMX1 Inhibits EPHA6/epha4b in Mouse and Zebrafish Retinas” (PLoS ONE, 2014).

This data set deals with the molecule itself. Nature of the data set: native gel or EMSA; lysate in non-denaturing lysis buffer (20 mM Tris-HCl, 137 mM NaCl, 10% glycerol, 1% Triton X-100, 2 mM EDTA, pH 8.0), 5 ug on a 4-15% gel run without SDS, compared with a denaturing gel; Western blot with anti-HA.

B1: HA-tagged wild-type HMX1 (natural protein)
chain: not shown
notes: HMX1 (NKX5-3), wild type; also called HA-HMX1; source: HEK 293T, transfected, in lysate
As to B1, the “stoichiometry N” value was determined as 2.

As a reminder, the stoichiometry N is the number of molecules, sites or subunits per partner or assembly.
